Where two headings read alike, the source gives them in different places.
Columns and labels:
Angiotensin II, P01019 [1] = assay: radioligand
Angiotensin II, P01019 [2] = assay: radioligand; remark: listed apart in the source

Sequence of Angiotensin II, P01019 (P01019 whole entry, looked up): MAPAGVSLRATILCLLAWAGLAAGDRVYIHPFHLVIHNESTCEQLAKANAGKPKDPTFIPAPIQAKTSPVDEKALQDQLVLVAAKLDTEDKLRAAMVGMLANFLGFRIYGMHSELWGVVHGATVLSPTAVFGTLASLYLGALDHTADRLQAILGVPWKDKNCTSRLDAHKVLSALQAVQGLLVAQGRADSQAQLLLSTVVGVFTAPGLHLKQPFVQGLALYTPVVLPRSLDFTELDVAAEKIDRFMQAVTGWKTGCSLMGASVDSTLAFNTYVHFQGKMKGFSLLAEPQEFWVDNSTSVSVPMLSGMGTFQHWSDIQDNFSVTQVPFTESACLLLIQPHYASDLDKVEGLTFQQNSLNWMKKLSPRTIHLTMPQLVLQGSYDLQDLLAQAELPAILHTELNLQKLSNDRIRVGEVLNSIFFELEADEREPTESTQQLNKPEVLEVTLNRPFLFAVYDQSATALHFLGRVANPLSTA

Kd (Angiotensin II, P01019 [1]): 3.32 nM
Kd (Angiotensin II, P01019 [2]): 3.57 nM
B1: Angiotensin II type 1 receptor (AT1R), P25095 (protein)
chain: MALNSSAEDGIKRIQDDCPKAGRHSYIFVMIPTLYSIIFVVGIFGNSLVVIVIYFYMKLKTVASVFLLNLALADLCFLLTLPLWAVYTAMEYRWPFGNHLCKIASASVSFNLYASVFLLTCLSIDRYLAIVHPMKSRLRRTMLVAKVTCIIIWLMAGLASLPAVIHRNVYFIENTNITVCAFHYESRNSTLPIGLGLTKNILGFLFPFLIILTSYTLIWKALKKAYEIQKNKPRNDDIFRIIMAIVLFFFFSWVPHQIFTFLDVLIQLGVIHDCKISDIVDTAMPITICIAYFNNCLNPLFYGFLGKKFKKYFLQLLKYIPPKAKSHSSLSTKMSTLSYRPSDNMSSSAKKPASCFEVE
